Experimental data from publication PMC2239301.

Target: Smy2p fused to the LexA-DNA binding domain (S. cerevisiae)
Experiment: two-hybrid

Smy2p fused to the LexA-DNA binding domain (S. cerevisiae), sequence (P32909 whole entry, the tested form may be a part): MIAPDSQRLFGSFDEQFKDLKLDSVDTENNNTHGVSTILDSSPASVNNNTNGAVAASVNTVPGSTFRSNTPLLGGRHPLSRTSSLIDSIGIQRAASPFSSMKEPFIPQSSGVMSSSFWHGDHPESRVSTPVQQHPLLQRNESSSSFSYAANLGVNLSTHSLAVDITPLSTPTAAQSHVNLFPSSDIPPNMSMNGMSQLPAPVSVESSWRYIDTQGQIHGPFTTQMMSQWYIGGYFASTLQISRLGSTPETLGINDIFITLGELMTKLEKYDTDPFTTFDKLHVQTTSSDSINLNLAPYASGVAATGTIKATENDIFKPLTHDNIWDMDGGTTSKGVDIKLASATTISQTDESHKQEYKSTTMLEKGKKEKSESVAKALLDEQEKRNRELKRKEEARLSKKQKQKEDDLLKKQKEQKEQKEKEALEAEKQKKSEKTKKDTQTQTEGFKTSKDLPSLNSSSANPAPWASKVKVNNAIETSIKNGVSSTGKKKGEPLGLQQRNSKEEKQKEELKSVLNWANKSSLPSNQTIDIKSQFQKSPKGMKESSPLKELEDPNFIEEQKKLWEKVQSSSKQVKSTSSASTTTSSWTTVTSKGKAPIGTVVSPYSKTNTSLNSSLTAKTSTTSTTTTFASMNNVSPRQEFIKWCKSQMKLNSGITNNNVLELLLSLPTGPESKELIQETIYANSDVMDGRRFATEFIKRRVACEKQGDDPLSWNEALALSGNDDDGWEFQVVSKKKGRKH

B1: Sec23p connected to the B42 acidic activation domain (natural protein)
chain: MDFETNEDINGVRFTWNVFPSTRSDANSNVVPVGCLYTPLKEYDELNVAPYNPVVCSGPHCKSILNPYCVIDPRNSSWSCPICNSRNHLPPQYTNLSQENMPLELQSTTIEYITNKPVTVPPIFFFVVDLTSETENLDSLKESIITSLSLLPPNALIGLITYGNVVQLHDLSSETIDRCNVFRGDREYQLEALTEMLTGQKPTGPGGAASHLPNAMNKVTPFSLNRFFLPLEQVEFKLNQLLENLSPDQWSVPAGHRPLRATGSALNIASLLLQGCYKNIPARIILFASGPGTVAPGLIVNSELKDPLRSHHDIDSDHAQHYKKACKFYNQIAQRVAANGHTVDIFAGCYDQIGMSEMKQLTDSTGGVLLLTDAFSTAIFKQSYLRLFAKDEEGYLKMAFNGNMAVKTSKDLKVQGLIGHASAVKKTDANNISESEIGIGATSTWKMASLSPYHSYAIFFEIANTAANSNPMMSAPGSADRPHLAYTQFITTYQHSSGTNRIRVTTVANQLLPFGTPAIAASFDQEAAAVLMARIAVHKAETDDGADVIRWLDRTLIKLCQKYADYNKDDPQSFRLAPNFSLYPQFTYYLRRSQFLSVFNNSPDETAFYRHIFTREDTTNSLIMIQPTLTSFSMEDDPQPVLLDSISVKPNTILLLDTFFFILIYHGEQIAQWRKAGYQDDPQYADFKALLEEPKLEAAELLVDRFPLPRFIDTEAGGSQARFLLSKLNPSDNYQDMARGGSTIVLTDDVSLQNFMTHLQQVAVSGQA
β-galactosidase activity: 26 units
